In patent US20150299277A1 (UNIVERSITY OF TOKYO, published 2015):

T1: Myc- and His-tagged C-terminal domain human PTX3 (animal cell expressed) (human, UniProt P26022 179-381)
T1 construct: also called C-terminal domain of PTX3; C-terminal fragment of PTX3; not shown: Myc and His tags of the pEF4/Myc-His B vector
T1 sequence: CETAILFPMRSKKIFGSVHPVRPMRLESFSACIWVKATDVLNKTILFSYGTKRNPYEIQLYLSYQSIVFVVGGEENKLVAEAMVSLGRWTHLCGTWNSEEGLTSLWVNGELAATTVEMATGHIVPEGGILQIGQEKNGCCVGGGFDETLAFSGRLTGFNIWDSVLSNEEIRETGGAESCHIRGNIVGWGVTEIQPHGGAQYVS


Experiments:
[1] = molecular target: T1, Myc- and His-tagged C-terminal domain …; assay: dot blot: fragments on nitrocellulose, PTX3 overlay, anti-myc detection (FIG. 12A left)
[2] = molecular target: T2, Myc- and His-tagged full-length human PTX3 (human, UniProt P26022 18-381); assay: as above
T2 construct: also called full-length PTX3; Myc-tagged full-length PTX3; not shown: Myc and His tags of the pEF4/Myc-His B vector

Binder	binding result [1]	binding result [2]
LVGLFEDTNLCAIHAKRVTI [histone H3 fragment H3-11]	binds	binds
EIRRYQKSTELLIRKLPFQR [histone H3 fragment H3-6]	–	binds
